Data from patent US20220275075A1 (PARACRINE THERAPEUTICS, published 2022).
Substitutions are numbered along the chain they refer to.

T1: corresponding PDGF-D peptide SVNIREELKC (human)
T1 construct: Synthesised with a C-terminal cysteine; also called alternate peptide
T1 peptide: SVNIREELKC

T2: overlapping PDGF-C peptide EELKRTDTIFC (human)
T2 construct: Synthesised with a C-terminal cysteine for thiol immobilisation
T2 peptide: EELKRTDTIFC

T3: PDGF-C peptide epitope SVSIREELKC (human)
T3 construct: Synthesised with a C-terminal cysteine for thiol immobilisation on the sensor chip
T3 peptide: SVSIREELKC

T4: RTDTIFWPGC
T4 peptide: RTDTIFWPGC

B1: Peptide 3 (SVSIREELKRTDTIFWPGC) (peptide)
peptide: SVSIREELKRTDTIFWPGC
notes: Synthetic peptide; also called PDGFC peptide 3
B2: monoclonal antibody 12F5 (antibody, mouse IgG2a, V domains shown)
VH: EVKLEESGGGLVQPGGSRELSCEGSGFTFSGFWMSWVRQTPGKTLEWIGDINSDGSAIIYAPSIKDRFTIFRDNDKSTLYLQMNNVRSEDTATYFCMRWGYYGSNYFDYWGQGTTLTVSS
VL: DVVMTQTPLSLPVSLGDQASISCRSSQSIVHSNGNTYLHWYLQKPGQSPKLLIYRVSNRFSGVPDRFSGSGSGTDFTLKISRVEAEDMGVYYCFQGTHVPFTFGSGTKLEIKR
notes: Murine IgG2a, kappa light chain; also called anti-PDGF-CC mAb 12F5
B3: humanized anti-PDGF-CC antibody 6B3 (hu6B3), heavy chain R30 (antibody, V domains shown)
VH: QVQLVQSGAEVKKPGASVKVSCKASGYTFRSYGITWVRQATGQGLEWMGEIYPRSGKTGYAQKFQGRVTMTADTSTSTVYMELRSLRSEDSAVYFCAREGYGYDGGYFDYWGQGTLVTVSS
VL: DIVMTQSPSSLAMSVGERATINCKSSQSLLNSRNQKNYLAWYQQKPGQPPKLLIYFASTRESGVPDRFSGSGSGTDFTLTISSVQAEDVAVYYCQQHYSTPLTFGGGTKVELKR
notes: Human IgG1 kappa as the final form; also called hu6B3 R; hu6B3 R30
B4: monoclonal antibody 6B3 (antibody, mouse IgG2a, V domains shown)
VH: QVQLQQSGVEVARPGASVKLSCKASGYTFRSYGITWVRQRTGQGLEWIGEIYPRSGKTYYNEKFKGKATLTADTSSSTVYMELRSLTSEDSAVYFCAREGYGYDGGYFDYWGQGTTLTVSS
VL: DIVMTQSPSSLAMSVGQKVTMSCKSSQSLLNSRNQKNYLAWYQQKPGQSPKLLVYFASTRESGVPDRFTGSGSGTDFTLTISSVQAEDLAVYYCQQHYSTPLTFGAGTKLELKR
notes: The variable domains are identical to those of 19C7; also called mu6B3; murine 6B3
B5: monoclonal antibody 11F5 (antibody, mouse IgG2a, V domains shown)
VH: QVQLQQSGAELARPGASVKLSCKASGYIFISYGISWVKQRTGQGLEWIGEIYPRSGKTYYNEKFKDKAALTADKSSSIAYMELRSLTSEDSAVYFCAREGYGYDGGYFDYWGQGTILTVSS
VL: B4 VL with T20A, M21V, R33S, E61D
notes: Murine IgG2a, kappa light chain
B6: monoclonal antibody 19C7 (antibody, mouse IgG2a, V domains shown)
VH: B4 VH
VL: B4 VL
notes: as for B5
B7: chimeric anti-PDGF-CC antibody 6B3 (ch6B3) (antibody, V domains shown)
VH: B4 VH with R30G
VL: B4 VL
notes: also called chimeric 6B3; mouse-human chimeric antibody 6B3

How the values were obtained:
monoclonal antibody 6B3 = target: B4; assay: Biacore competition: 6B3 (333 nM) with soluble peptide injected over immobilised PDGF-CC core protein, maximum response plotted
Method: Biosensor analyses were performed on a BlAcore 2000 biosensor using a carboxymethyldextran-coated sensor chip (Xantec CMD). The chip was derivatised on channel 2 with the PDGF-CC core antigen (60 μg/mL) using standard amine coupling chemistry (0.05M NHS/0.2M EDC). Channel 1 was derivatised with ethanolamine and used as a blank control channel for correction of refractive index effects.
After the injection phase, the dissociation was monitored by flowing HBS buffer over the chip surface for 360s. Bound antibody was eluted and the chip surface regenerated between samples by injection of 30 μl of 10 mM Glycine pH 2.0

[1] = target: T5, recombinant human PDGF-CC active core domain protein with terminal histidine tag (human, UniProt Q9NRA1 231-345); assay: SPR, BIAcore 2000, His-tagged PDGF-CC on Ni-NTA chip, antibody as analyte, 1:1 Langmuir fit (apparent)
T5 construct: Made in baculovirus-infected Sf9 cells; The position of the tag in the chain is not known; also called RhPC; RhPCc; not shown: terminal histidine tag
Method: Biosensor analyses were performed on a BIAcore 2000 biosensor using an NTA sensor chip. Briefly, a NTA sensor chip was loaded with Ni 2+ and used to immobilize histidine tagged PDGF-CC ligand. The PDGF-CC antibodies were passed over the chip at varying concentrations in order to determine apparent affinity (KD). Chips were regenerated with EGTA. The chip was re-equilibrated by washing with HBS (containing no EDTA) before further analyses. Using BIAevaluation software, a 1:1 Langmuir binding analysis model was used to estimate the apparent association (ka) and disassociation (kd) rate constants for each set of antibody experiments.

[2] = target: T6, recombinant human PDGF-AA (human, UniProt P04085 87-211); assay: ELISA, PDGF ligands coated at 1 µg/ml, purified mAb at 1.5 µg/ml
T6 construct: Bought; The construct is not described
Method: (§1) Following immunisation of mice and splenic fusions by standard procedures, the supernatant of 16 hybridomas were initially assessed for PDGF-CC binding specificity by ELISA and Western analysis. A sensitive ELISA assay was employed to explore this using commercially available PDGF-AA, PDGF-BB, PDGF-DD and recombinant PDGF-CC. Specifically, antigen immobilization of purified recombinant human PDGF ligands, PDGF-AA, BB, CC and DD diluted in 100 mM NaHCO₃ at the concentration of 1μg/ml, was performed overnight at +4° C. Thereafter, all incubations were done at room temperature 1.5-2 hours and washes carried out with PBS. In triplicate, hybridoma supernatants were applied at a dilution of 1:2 in PBS/1% bovine serum albumin (BSA), or purified monoclonal antibody (mAbs) was added (1.5μg/ml in 3% BSA). A rabbit polyclonal IgG—purified antibody was used as positive control (4 μg/ml). Binding was detected with an anti—mouse (or anti—rabbit in control) alkaline phosphatase—conjugated secondary antibody and visualized by incubation with alkaline phosphatase yellow (pNPP) liquid substrate system for ELISA (Sigma—Aldrich). Absorbance was read at 405 nm.

[3] = target: T7, recombinant human PDGF-BB (human, UniProt P01127 82-190); assay: as above
T7 construct: Bought; The construct is not described; also called PB
Method: as §1

[4] = target: T8, recombinant human PDGF-DD (human, UniProt Q9GZP0 250-370, limits assumed); assay: as above
T8 construct: The construct is not described; also called PDGF-D polypeptide; PDGF-DD (R&D)
Method: as §1

[5] = target: T5, recombinant human PDGF-CC active core …; assay: ELISA on coated PDGF-AA, -BB, -CC, -DD and BSA
[6] = target: T6, recombinant human PDGF-AA; assay: ELISA on coated PDGF-AA, -BB, -CC, -DD and BSA
[7] = target: T7, recombinant human PDGF-BB; assay: ELISA on coated PDGF-AA, -BB, -CC, -DD and BSA
[8] = target: T8, recombinant human PDGF-DD; assay: ELISA on coated PDGF-AA, -BB, -CC, -DD and BSA
[9] = target: T1, corresponding PDGF-D peptide SVNIREELKC; assay: Biacore, 6B3 over thiol-immobilised peptide
Method: Samples of 6B3 antibody (1.334 μM) was injected (30 μL at 10 μL/min) in HBS buffer over the immobilized peptides.

[10] = target: T2, overlapping PDGF-C peptide EELKRTDTIFC; assay: Biacore, 6B3 at 20.8 nM-667 nM over thiol-immobilised peptide
[11] = target: T3, PDGF-C peptide epitope SVSIREELKC; assay: as above
RTDTIFWPGC = target: T4, RTDTIFWPGC; assay: as above
[12] = target: B1; assay: SPR, 6B3 (20.8 nM-667 nM) over thiol-immobilised peptide 3
Method: Peptide 3 was immobilized on channel 4 of the carboxymethyldextran-coated sensor chip using thiol chemistry. Briefly, the chip was activated on channel 4 using standard amine coupling chemistry (0.05M NHS/0.2M EDC) followed by 80 mM (2-(2-pyridinyldithio)ethane amine (PDEA) in 1M borate PH 8.2. Peptide 3 (100 nM in 10 mM sodium acetate pH 4.5) was conjugated via its C-terminal cysteine to PDEA. The chip was then blocked using 40 mM L-cysteine in 10 mM sodium acetate pH 4.0 and 1 M ethanolamine pH 8.2. A blank derivatised channel was used as the control channel.
Samples of antibody 6B3 (20.8 nM-667 nM) were injected (30 μL at 10 μL/min) in HBS buffer over immobilized peptide 3. Specific binding was observed as compared to the blank channel and then investigated further with smaller overlapping peptide sequences (data not shown).

[13] = target: T9, mouse PDGF-C core protein (mouse, UniProt Q8CI19 231-345, limits assumed); assay: immunoblot of COS-1 supernatant with mouse PDGF-C core, probed with purified antibody
T9 construct: also called COSmPCcoremedia
Method: To produce the mouse PDGF-CC protein, COS-1 cells were transfected with mouse PDGF-C core plasmid constructed in expression vector pCDNA3.1 (Invitrogen). Transfection using lipofectamine plus reagent (Invitrogen) was performed according to the manufacturer's instructions. Transfected cells were cultured in serum free media. At 24 hours post-transfection, culture supernatant (COSmPCcoremedia) was collected and 30 μl sample was loaded on SDS-PAGE together with human PDGF-C core protein (0.1 μg RhPcc) and proteins separated by SDS-PAGE. Protein was then isolated using standard means.

[14] = target: T8, recombinant human PDGF-DD; assay: immunoblot of recombinant PDGF-D after SDS-PAGE, probed with hybridoma supernatant, exposure 10 seconds

T5 sequence (Q9NRA1 231-345 limits assumed): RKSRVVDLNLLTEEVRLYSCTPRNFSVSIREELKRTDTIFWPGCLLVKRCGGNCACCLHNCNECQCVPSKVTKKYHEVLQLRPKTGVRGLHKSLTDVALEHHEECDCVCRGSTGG
T7 sequence (P01127 82-190): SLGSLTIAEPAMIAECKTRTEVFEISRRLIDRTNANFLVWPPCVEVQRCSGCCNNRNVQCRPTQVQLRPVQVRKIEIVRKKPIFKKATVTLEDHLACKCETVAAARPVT
T8 sequence (Q9GZP0 250-370 limits assumed): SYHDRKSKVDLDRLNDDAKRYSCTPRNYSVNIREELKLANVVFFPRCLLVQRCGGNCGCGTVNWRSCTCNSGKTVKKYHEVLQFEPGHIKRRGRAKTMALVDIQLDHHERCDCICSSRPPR
T9 sequence (Q8CI19 231-345 limits assumed): as the sequence (Q9NRA1 231-345 limits assumed) above, with R1K, R4K, D7N, T12K, R16K, S69R, R88K, S112N, T113A counted along it

Binder | Kd [1] [nM] | koff [1] [s⁻¹] | kon [1] [M⁻¹ s⁻¹] | binding result [2] | binding result [3] | binding result [4] | other results
B1 |  |  |  |  |  |  | binding result (monoclonal antibody 6B3): binds
B2 | 2.2 | 0.0002 | 90000 | no binding (tested: 1.5 µg/ml) | no binding (tested: 1.5 µg/ml) | no binding (tested: 1.5 µg/ml) | 
B3 |  |  |  |  |  |  | binding result [5]: binds; binding result [6]: no binding; binding result [7]: no binding; binding result [8]: no binding
B4 | 0.9 | 0.0015 | 1.8e+06 | no binding (tested: 1.5 µg/ml) | no binding (tested: 1.5 µg/ml) | no binding (tested: 1.5 µg/ml) | binding result [9]: no binding (tested: 1.334 µM (legend; paragraph 184 says 667 nM)); binding result [10]: no binding (tested: 667 nM); binding result [11]: binds; binding result (RTDTIFWPGC): binds; binding result [12]: binds; binding result [13]: no binding
B5 | 1.05 | 0.00058 | 640000 | no binding (tested: 1.5 µg/ml) | no binding (tested: 1.5 µg/ml) |  | binding result [14]: no binding
B6 | 0.7 | 0.0016 | 2.2e+06 | no binding (tested: 1.5 µg/ml) | no binding (tested: 1.5 µg/ml) | no binding (tested: 1.5 µg/ml) | 
B7 | 0.7 | 0.00041 | 600000 |  |  |  | binding result [6]: no binding; binding result [7]: no binding; binding result [8]: no binding
